{"source": "patent US20040029228A1", "test_in_all_cases": "cell-based or functional assay", "key": {"[1]": {"target": "zcytoR19 and IL10Rb (CRF2-4) co-expressed on cells (heterodimeric receptor) (human)"}, "[2]": {"target": "T1, human zcytor19 (Zyctor19) cytokine receptor (human)", "T1 sequence (Q8IU57 1-520, looked up)": "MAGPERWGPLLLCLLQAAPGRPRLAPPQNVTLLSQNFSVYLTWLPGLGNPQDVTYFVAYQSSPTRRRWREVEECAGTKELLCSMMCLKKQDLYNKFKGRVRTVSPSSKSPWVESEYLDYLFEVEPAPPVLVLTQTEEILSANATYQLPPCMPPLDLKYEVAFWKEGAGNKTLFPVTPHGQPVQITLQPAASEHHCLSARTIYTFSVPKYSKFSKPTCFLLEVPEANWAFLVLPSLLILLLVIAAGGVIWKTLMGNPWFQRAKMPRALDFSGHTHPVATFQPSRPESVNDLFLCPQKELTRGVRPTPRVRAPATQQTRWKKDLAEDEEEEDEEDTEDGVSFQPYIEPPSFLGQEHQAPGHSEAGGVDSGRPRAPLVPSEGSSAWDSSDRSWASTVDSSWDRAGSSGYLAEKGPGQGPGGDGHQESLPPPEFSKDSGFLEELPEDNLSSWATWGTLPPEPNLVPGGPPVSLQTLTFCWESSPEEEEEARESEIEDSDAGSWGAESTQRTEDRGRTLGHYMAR"}, "[3]": {"target": "human CRF2-4 (IL10Rb) (human)", "sequence (Q08334 whole entry)": "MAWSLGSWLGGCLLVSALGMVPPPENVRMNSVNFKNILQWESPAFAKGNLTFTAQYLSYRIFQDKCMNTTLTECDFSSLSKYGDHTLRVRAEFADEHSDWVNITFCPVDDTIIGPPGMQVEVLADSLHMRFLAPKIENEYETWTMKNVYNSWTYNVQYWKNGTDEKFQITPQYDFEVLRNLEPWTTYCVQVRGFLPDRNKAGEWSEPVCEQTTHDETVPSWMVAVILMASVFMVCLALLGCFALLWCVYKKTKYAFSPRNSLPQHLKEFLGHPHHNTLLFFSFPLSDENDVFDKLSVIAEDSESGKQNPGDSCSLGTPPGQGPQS"}}}
{"binder": "zcyto22 (ligand) MTGDCMPVLVLMAAVLTVTGAVPVARLRGALPDARGCHIAQFKSLSPQELQAFKRAKDALEESLLLKDCKCRSRLFPRTWDLRQLQVRERPVALEAELALTLKVLEATADTDPALGDVLDQPLHTLHHILSQLRACVSRQGPGTQIQPQPTAGPRTRGRLHHWLHRLQEAPKKESPGCLEASVTFNLFRLLTRDLNCVASGDLCV", "values": [{"measurement": "ISRE-luciferase fold induction, BHK cells transfected with zcytoR19 and IL10Rb (CRF2-4), zcyto22 0.001 ng/ml (fold induction)", "setting": "[1]", "value": 1.3}, {"measurement": "ISRE-luciferase fold induction, BHK cells transfected with zcytoR19 and IL10Rb (CRF2-4), zcyto22 0.01 ng/ml (fold induction)", "setting": "[1]", "value": 1.7}, {"measurement": "ISRE-luciferase fold induction, BHK cells transfected with zcytoR19 and IL10Rb (CRF2-4), zcyto22 0.1 ng/ml (fold induction)", "setting": "[1]", "value": 2.4}, {"measurement": "ISRE-luciferase fold induction, BHK cells transfected with zcytoR19 and IL10Rb (CRF2-4), zcyto22 1 ng/ml (fold induction)", "setting": "[1]", "value": 2.7}, {"measurement": "ISRE-luciferase fold induction, BHK cells transfected with zcytoR19 and IL10Rb (CRF2-4), zcyto22 10 ng/ml (fold induction)", "setting": "[1]", "value": 2.7}, {"measurement": "ISRE-luciferase fold induction, BHK cells transfected with zcytoR19 and IL10Rb (CRF2-4), zcyto22 100 ng/ml (fold induction)", "setting": "[1]", "value": 2.2}, {"measurement": "ISRE-luciferase fold induction, BHK cells transfected with zcytoR19 and IL10Rb (CRF2-4), zcyto22 1000 ng/ml (fold induction)", "setting": "[1]", "value": 2.2}, {"measurement": "ISRE-luciferase fold induction, 293 cells transfected with ISRE-Luc./Zcytor19, Zcyto22 125 ng/ml (fold induction)", "setting": "[2]", "value": 104}, {"measurement": "ISRE-luciferase fold induction, BHK cells transfected with zcytoR19 alone, zcyto22 0.001 ng/ml (fold induction)", "setting": "[2]", "value": 1.2}, {"measurement": "ISRE-luciferase fold induction, BHK cells transfected with zcytoR19 alone, zcyto22 0.01 ng/ml (fold induction)", "setting": "[2]", "value": 1.2}, {"measurement": "ISRE-luciferase fold induction, BHK cells transfected with zcytoR19 alone, zcyto22 0.1 ng/ml (fold induction)", "setting": "[2]", "value": 1.1}, {"measurement": "ISRE-luciferase fold induction, BHK cells transfected with zcytoR19 alone, zcyto22 1 ng/ml (fold induction)", "setting": "[2]", "value": 1.5}, {"measurement": "ISRE-luciferase fold induction, BHK cells transfected with zcytoR19 alone, zcyto22 10 ng/ml (fold induction)", "setting": "[2]", "value": 1.9}, {"measurement": "ISRE-luciferase fold induction, BHK cells transfected with zcytoR19 alone, zcyto22 100 ng/ml (fold induction)", "setting": "[2]", "value": 2}, {"measurement": "ISRE-luciferase fold induction, BHK cells transfected with zcytoR19 alone, zcyto22 1000 ng/ml (fold induction)", "setting": "[2]", "value": 1.8}, {"measurement": "ISRE-luciferase fold induction, wild-type 293 cells, Zcyto22 0.01 ng/ml (fold induction)", "setting": "[3]", "value": 0.9}, {"measurement": "ISRE-luciferase fold induction, wild-type 293 cells, Zcyto22 0.01 ng/ml + IL10Rb neutralizing Antibody (fold induction)", "setting": "[3]", "value": 0.9}, {"measurement": "ISRE-luciferase fold induction, wild-type 293 cells, Zcyto22 0.1 ng/ml (fold induction)", "setting": "[3]", "value": 1.2}, {"measurement": "ISRE-luciferase fold induction, wild-type 293 cells, Zcyto22 0.1 ng/ml + IL10Rb neutralizing Antibody (fold induction)", "setting": "[3]", "value": 0.8}, {"measurement": "ISRE-luciferase fold induction, wild-type 293 cells, Zcyto22 1 ng/ml (fold induction)", "setting": "[3]", "value": 1.8}, {"measurement": "ISRE-luciferase fold induction, wild-type 293 cells, Zcyto22 1 ng/ml + IL10Rb neutralizing Antibody (fold induction)", "setting": "[3]", "value": 0.8}, {"measurement": "ISRE-luciferase fold induction, wild-type 293 cells, Zcyto22 10 ng/ml (fold induction)", "setting": "[3]", "value": 8}, {"measurement": "ISRE-luciferase fold induction, wild-type 293 cells, Zcyto22 10 ng/ml + IL10Rb neutralizing Antibody (fold induction)", "setting": "[3]", "value": 1}, {"measurement": "ISRE-luciferase fold induction, wild-type 293 cells, Zcyto22 100 ng/ml (fold induction)", "setting": "[3]", "value": 11}, {"measurement": "ISRE-luciferase fold induction, wild-type 293 cells, Zcyto22 100 ng/ml + IL10Rb neutralizing Antibody (fold induction)", "setting": "[3]", "value": 1.2}]}
